Test results published in patent US20160130333A1 (published 2016).

Target: histones
Assay: ELISA

B1: mIMMU-H4 (antibody, V domains shown)
VH: QVQLQQSGAELVRPGASVKLSCTASGFNIKDDYLHWVKQRPEQGLEWIGWIDPENGDTEYASKFQGKATITADTSSNTAYLQLSSLTSEDTAVYYCSSPLVHLRTFAYWGQGTLVTVS
VL: DIQLTQSPASLAVSLGQRATISCRASESVDSYDNSLHWFQQKPGQPPKLLIYLASNLESGVPARFSGSGSRTDFTLTIDPVEADDAATYYCQQNNEDPWTFGGGTKLEIKR
Kd: 6.6 nM

B2: cIMMU-H4 (antibody, V domains shown)
VH: QVQLQQSGAELVRPGASVKLSCTASGFNIKDDYLHWVKQRPEQGLEWIGWIDPENGDTEYASKFQGKATITADTSSNTAYLQLSSLTSEDTAVYYCSSPLVHLRTFAYWGQGTLVTVSA
VL: B1 VL
Kd: 0.96 nM
